Measurements published in publication PMC3932411.

Columns and labels:
[1] = I-V relationship, plateau phase; settings: glycan lost; control: wild type
[2] = cell surface biotinylation, Western blot; settings: glycan lost; control: wild type
I-V relationship = settings: glycan lost; control: untreated WT (DMSO)
[3] = whole-cell patch clamp, +100 mV; settings: glycan lost; control: untreated WT (DMSO)

Substance | other: channel voltage dependence [1] | localisation_or_trafficking [2] | other: channel voltage dependence (I-V relationship) | other: channel deactivation kinetics, other: deactivation slope [3]
TRPM4 (TRPM4b): N992Q | no change | no change | – | –
TRPM4 (TRPM4b): tunicamycin (10 μg/ml; 19 h) | – | – | no change | no change, 5265 ± 572 vs 4855 ± 379
